{
  "source": "patent US20190136216",
  "biological_target": "VAMP2, native protein in rat brain detergent extracts (BDE) (UniProt P63045)",
  "sequence (P63045 whole entry, looked up, the tested form may be a part)": "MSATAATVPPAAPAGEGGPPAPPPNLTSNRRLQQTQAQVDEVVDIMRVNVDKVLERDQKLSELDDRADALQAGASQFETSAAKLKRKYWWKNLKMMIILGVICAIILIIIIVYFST",
  "data": [
    {"substance": "LC of BoNT/B (B-LC), residues 1-439, His6-tagged", "values": [
      {"measurement": "cleavage of SNARE proteins in rat brain detergent extracts (immunoblot)", "value": "abolishes the immunoblot signal of VAMP2"}
    ]}
  ]
}
